Experimental data from patent US20030203451A1 (Genentech, published 2003).

Columns and labels:
[1] = biological target: recombinant IL-17E (baculovirus, Examples 33/34) (human) (UniProt Q9H293); assay: SPR (BIAcore 1000), IL-17E immobilized on CM5 chip, IL-17RH1 ECD in solution, 1:1 model
[2] = biological target: T1, IL-17R extracellular domain (residues 1-288), baculovirus, Examples 33/34 (human, UniProt Q96F46 33-320); assay: SPR (BIAcore)
T1 construct: range 1-288; also called IL-17R ECD

[3] = biological target: T2, IL-17RH1 (PRO5801) extracellular domain (residues 1-275), baculovirus, Examples 33/34 (human) (UniProt Q9NRM6); assay: SPR (BIAcore 1000), IL-17RH1 ECD immobilized on CM5 chip, IL-17E in solution, 1:1 model
T2 sequence: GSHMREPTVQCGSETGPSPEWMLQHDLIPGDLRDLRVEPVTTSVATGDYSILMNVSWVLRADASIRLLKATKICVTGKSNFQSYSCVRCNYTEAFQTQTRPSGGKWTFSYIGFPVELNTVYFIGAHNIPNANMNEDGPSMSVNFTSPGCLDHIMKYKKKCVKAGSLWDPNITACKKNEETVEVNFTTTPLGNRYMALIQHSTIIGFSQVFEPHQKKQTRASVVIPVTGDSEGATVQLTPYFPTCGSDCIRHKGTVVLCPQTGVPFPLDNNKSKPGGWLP

[4] = biological target: T1, IL-17R extracellular domain (residues …); assay: SPR (BIAcore), IL-17F immobilized, receptor ECD in solution
[5] = biological target: T3, IL-17RH1 (PRO5801) expressed on transfected 293 cells (human, UniProt Q9NRM6 18-502); assay: FACS on 293 cells co-transfected with GFP and IL-17RH1, ligand-Fc detected with PE anti-human Fc antibody, GFP-positive cells
T3 construct: also called IL-17RH1 expressing cells
T3 sequence: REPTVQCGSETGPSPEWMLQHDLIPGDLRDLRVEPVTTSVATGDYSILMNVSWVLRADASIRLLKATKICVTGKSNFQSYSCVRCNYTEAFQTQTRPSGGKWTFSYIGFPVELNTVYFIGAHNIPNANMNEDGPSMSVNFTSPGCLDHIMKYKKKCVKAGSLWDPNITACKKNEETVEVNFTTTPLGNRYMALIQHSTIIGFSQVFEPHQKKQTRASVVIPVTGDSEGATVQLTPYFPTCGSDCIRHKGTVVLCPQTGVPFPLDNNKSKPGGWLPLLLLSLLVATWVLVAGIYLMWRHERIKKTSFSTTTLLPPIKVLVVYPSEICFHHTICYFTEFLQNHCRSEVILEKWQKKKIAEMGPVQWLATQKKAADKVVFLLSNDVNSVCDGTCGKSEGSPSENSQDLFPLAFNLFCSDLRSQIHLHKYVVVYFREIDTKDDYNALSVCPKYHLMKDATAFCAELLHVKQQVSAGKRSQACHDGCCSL

[6] = biological target: T3, IL-17RH1 (PRO5801) expressed on …; assay: flow cytometry competition against IL-17E immunoadhesin on IL-17RH1-transfected 293 cells

IL-17RH1 (PRO5801) extracellular domain (residues 1-275), baculovirus, Examples 33/34 (from UniProt Q9NRM6 18-292) (receptor)
Kd [1]: 1.1 nM
koff [1]: 0.0007 s⁻¹
kon [1]: 670000 M⁻¹ s⁻¹

B1: recombinant IL-17E (baculovirus, Examples 33/34) (ligand)
chain: GSHMYSHWPSCCPSKGQDTSEELLRWSTVPVPPLEPARPNRHPESCRASEDGPLNSRAISPWRYELDRDLNRLPQDLYHARCLCPHCVSLQTGSHMDPRGNSELLYHNQTVFYRRPCHGEKGTHKGYCLERRLYRVSLACVCVRPRVMG
notes: also called IL-17E (PRO10272); soluble IL-17E
binding result [2]: no binding
Kd [3]: 1.4 nM
koff [3]: 0.00062 s⁻¹
kon [3]: 430000 M⁻¹ s⁻¹

B2: recombinant IL-17F (baculovirus, Examples 33/34) (ligand)
chain: GSHMRKIPKVGHTFFQKPESCPPVPGGSMKLDIGIINENQRVSMSRNIESRSTSPWNYTVTWDPNRYPSEVVQAQCRNLGCINAQGKEDISMNSVPIQQETLVVRRKHQGCSVSFQLEKVLVTVGCTCVTPVIHHVQ
modifications: N-glycosylation at Asn 53 (mature numbering); about 3 kDa carbohydrate per dimer
notes: The same protein was crystallized; also called IL-17F (PRO20110); immobilized IL-17F
binding result [4]: no binding (tested: up to 1 µM)

B3: IL-17E-Fc fusion protein (IL-17E immunoadhesin) (Fc fusion)
chain: YSHWPSCCPSKGQDTSEELLRWSTVPVPPLEPARPNRHPESCRASEDGPLNSRAISPWRYELDRDLNRLPQDLYHARCLCPHCVSLQTGSHMDPRGNSELLYHNQTVFYRRPCHGEKGTHKGYCLERRLYRVSLACVCVRPRVMG
notes: not shown: Fc region of human IgG1, fused in frame at the C-terminus
binding result [5]: binds

B4: His epitope tagged IL-17E (E. coli, refolded) (ligand)
chain: YSHWPSCCPSKGQDTSEELLRWSTVPVPPLEPARPNRHPESCRASEDGPLNSRAISPWRYELDRDLNRLPQDLYHARCLCPHCVSLQTGSHMDPRGNSELLYHNQTVFYRRPCHGEKGTHKGYCLERRLYRVSLACVCVRPRVMG
notes: also called IL-17E 8xHis-tag fusion; not shown: 8xHis-tag fusion
binding result [6]: binds
